# Reference: the RNAGym collection of RNA variant scans (doi:10.1093/molbev/msab373)
# B1: Azoarcus group I ribozyme (parent)
# chain: GUGCCUUGCGCCGGGAAACCACGCAAGGGAUGGUGUCAAAUUCGGCGAAACCUAAGCGCCCGCCCGGGCGUAUGGCAACGCCGAGCCAAGCUUCGGCGCCUGCGCCGAUGAAGGUGUAGAGACUAGACGGCACCCACCUAAGGCAAACGCUAUGGUGAAGGCAUAGUCCAGGGAGUGGCGAAAGUCACACAAACCGG
# Variants of: B1
# Test: reverse-splicing fitness (ratio to wild type); higher = more active; in vitro selection; Mg2+ level not given
# Procedure, shortened: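 An in vitro group I ribozyme library with randomized positions was T7-transcribed and gel-purified. In triplicate, 10 pmol RNA in EPPS pH 7.5 was reacted with 50 pmoles of a 30-nt RNA substrate for 1 h at 37 °C across several added MgCl2 levels (1–48 mM), then stopped with EDTA. Products were reverse transcribed from a substrate-complementary primer, PCR-amplified and sequenced (HiSeq 4000). Fitness is a variant's read proportion after selection over that before, normalised to wild type.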
row,Variant,reverse-splicing fitness
1,GUGCCUUGCGCCGGGAAACCACGCAAGGGAUGGUGUCAAAUUCGGCGAAACCUAAGCGCCCGCCCGGGCGUAUGGCAACGCCGAGCCAAGCUUCGGCGCCUGCGCCGAUGGAGGUGUAGUGACUAGACGGCACCCACCUAAGGCGAACGGUAUGGUGAAGGCAUAGUCCAGGGAGGGGCGAAAGUCACACAAACCGG [A111G A120U A145G C150G U176G],0.00403
2,GUGCCUUGCGCCGGGAAACCACGCAAGGGAUGGUGUCAAAUUCGGCGAAACCUAAGCGCCCGCCCGGGCGUAUGGCAACGCCGAGCCAAGCUUCGGCGCCUGCGCCGAUGGAGGUGUAGUGACUAGACGGCACCCACCUAAGGCGAACGUUAUGGUGAAGGCAUAGUCCAGGGAGUGGCGAAAGUCACACAAACCGG [A111G A120U A145G C150U],0.611
3,GUGCCUUGCGCCGGGAAACCACGCAAGGGAUGGUGUCAAAUUCGGCGAAACCUAAGCGCCCGCCCGGGCGUAUGGCAACGCCGAGCCAAGCUUCGGCGCCUGCGCCGAUGGAGGUGUAGUGACUAGACGGCACCCACCUAAGGCGAACGUUAUGGUGAAGGCAUAGUCAAGGGAGUGGCGAAAGUCACACAAACCGG [A111G A120U A145G C150U C169A],0.00841
4,GUGCCUUGCGCCGGGAAACCACGCAAGGGAUGGUGUCAAAUUCGGCGAAACCUAAGCGCCCGCCCGGGCGUAUGGCAACGCCGAGCCAAGCUUCGGCGCCUGCGCCGAUGGAGGUGUAGUGACUAGACGGCACCCACCUAAGGCGAACGUUAUGGUGAAGGCAUAGUCAAGGGAGAGGCGAAAGUCACACAAACCGG [A111G A120U A145G C150U C169A U176A],0.00469
5,GUGCCUUGCGCCGGGAAACCACGCAAGGGAUGGUGUCAAAUUCGGCGAAACCUAAGCGCCCGCCCGGGCGUAUGGCAACGCCGAGCCAAGCUUCGGCGCCUGCGCCGAUGGAGGUGUAGUGACUAGACGGCACCCACCUAAGGCGAACGUUAUGGUGAAGGCAUAGUCAAGGGAGCGGCGAAAGUCACACAAACCGG [A111G A120U A145G C150U C169A U176C],0.00357
6,GUGCCUUGCGCCGGGAAACCACGCAAGGGAUGGUGUCAAAUUCGGCGAAACCUAAGCGCCCGCCCGGGCGUAUGGCAACGCCGAGCCAAGCUUCGGCGCCUGCGCCGAUGGAGGUGUAGUGACUAGACGGCACCCACCUAAGGCGAACGUUAUGGUGAAGGCAUAGUCAAGGGAGGGGCGAAAGUCACACAAACCGG [A111G A120U A145G C150U C169A U176G],0.00246
7,GUGCCUUGCGCCGGGAAACCACGCAAGGGAUGGUGUCAAAUUCGGCGAAACCUAAGCGCCCGCCCGGGCGUAUGGCAACGCCGAGCCAAGCUUCGGCGCCUGCGCCGAUGGAGGUGUAGUGACUAGACGGCACCCACCUAAGGCGAACGUUAUGGUGAAGGCAUAGUCGAGGGAGUGGCGAAAGUCACACAAACCGG [A111G A120U A145G C150U C169G],0.0623
8,GUGCCUUGCGCCGGGAAACCACGCAAGGGAUGGUGUCAAAUUCGGCGAAACCUAAGCGCCCGCCCGGGCGUAUGGCAACGCCGAGCCAAGCUUCGGCGCCUGCGCCGAUGGAGGUGUAGUGACUAGACGGCACCCACCUAAGGCGAACGUUAUGGUGAAGGCAUAGUCGAGGGAGAGGCGAAAGUCACACAAACCGG [A111G A120U A145G C150U C169G U176A],0.0113
9,GUGCCUUGCGCCGGGAAACCACGCAAGGGAUGGUGUCAAAUUCGGCGAAACCUAAGCGCCCGCCCGGGCGUAUGGCAACGCCGAGCCAAGCUUCGGCGCCUGCGCCGAUGGAGGUGUAGUGACUAGACGGCACCCACCUAAGGCGAACGUUAUGGUGAAGGCAUAGUCGAGGGAGCGGCGAAAGUCACACAAACCGG [A111G A120U A145G C150U C169G U176C],0.0118
10,GUGCCUUGCGCCGGGAAACCACGCAAGGGAUGGUGUCAAAUUCGGCGAAACCUAAGCGCCCGCCCGGGCGUAUGGCAACGCCGAGCCAAGCUUCGGCGCCUGCGCCGAUGGAGGUGUAGUGACUAGACGGCACCCACCUAAGGCGAACGUUAUGGUGAAGGCAUAGUCGAGGGAGGGGCGAAAGUCACACAAACCGG [A111G A120U A145G C150U C169G U176G],0.00263
11,GUGCCUUGCGCCGGGAAACCACGCAAGGGAUGGUGUCAAAUUCGGCGAAACCUAAGCGCCCGCCCGGGCGUAUGGCAACGCCGAGCCAAGCUUCGGCGCCUGCGCCGAUGGAGGUGUAGUGACUAGACGGCACCCACCUAAGGCGAACGUUAUGGUGAAGGCAUAGUCUAGGGAGUGGCGAAAGUCACACAAACCGG [A111G A120U A145G C150U C169U],0.111
12,GUGCCUUGCGCCGGGAAACCACGCAAGGGAUGGUGUCAAAUUCGGCGAAACCUAAGCGCCCGCCCGGGCGUAUGGCAACGCCGAGCCAAGCUUCGGCGCCUGCGCCGAUGGAGGUGUAGUGACUAGACGGCACCCACCUAAGGCGAACGUUAUGGUGAAGGCAUAGUCUAGGGAGAGGCGAAAGUCACACAAACCGG [A111G A120U A145G C150U C169U U176A],0.0147
13,GUGCCUUGCGCCGGGAAACCACGCAAGGGAUGGUGUCAAAUUCGGCGAAACCUAAGCGCCCGCCCGGGCGUAUGGCAACGCCGAGCCAAGCUUCGGCGCCUGCGCCGAUGGAGGUGUAGUGACUAGACGGCACCCACCUAAGGCGAACGUUAUGGUGAAGGCAUAGUCUAGGGAGCGGCGAAAGUCACACAAACCGG [A111G A120U A145G C150U C169U U176C],0.0273
14,GUGCCUUGCGCCGGGAAACCACGCAAGGGAUGGUGUCAAAUUCGGCGAAACCUAAGCGCCCGCCCGGGCGUAUGGCAACGCCGAGCCAAGCUUCGGCGCCUGCGCCGAUGGAGGUGUAGUGACUAGACGGCACCCACCUAAGGCGAACGUUAUGGUGAAGGCAUAGUCUAGGGAGGGGCGAAAGUCACACAAACCGG [A111G A120U A145G C150U C169U U176G],0.00334
15,GUGCCUUGCGCCGGGAAACCACGCAAGGGAUGGUGUCAAAUUCGGCGAAACCUAAGCGCCCGCCCGGGCGUAUGGCAACGCCGAGCCAAGCUUCGGCGCCUGCGCCGAUGGAGGUGUAGUGACUAGACGGCACCCACCUAAGGCGAACGUUAUGGUGAAGGCAUAGUCCAGGGAGAGGCGAAAGUCACACAAACCGG [A111G A120U A145G C150U U176A],0.237
